From article PMC10397247

What was measured:
[1] = molecular target: T1, P1A-bS; assay: two-hybrid library CCNG1;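 further: natural log of median RNA to DNA barcode read ratio; higher means stronger binding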
T1 chain: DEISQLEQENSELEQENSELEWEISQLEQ

[2] = molecular target: T2, P2A-bS; assay: two-hybrid library CCNG1;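 further: natural log of median RNA to DNA barcode read ratio; higher means stronger binding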
T2 chain: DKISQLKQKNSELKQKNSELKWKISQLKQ

[3] = molecular target: T3, P3A-bS; assay: two-hybrid library CCNG1;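 further: natural log of median RNA to DNA barcode read ratio; higher means stronger binding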
T3 chain: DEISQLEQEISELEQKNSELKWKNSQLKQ

[4] = molecular target: T4, P4A-bS; assay: two-hybrid library CCNG1;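 further: natural log of median RNA to DNA barcode read ratio; higher means stronger binding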
T4 chain: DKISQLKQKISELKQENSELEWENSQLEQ

[5] = molecular target: T5, P5A-bS; assay: two-hybrid library CCNG1
T5 chain: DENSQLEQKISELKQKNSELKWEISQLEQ

[6] = molecular target: T6, P6A-bS; assay: two-hybrid library CCNG1
T6 chain: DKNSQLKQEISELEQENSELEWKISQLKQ

[7] = molecular target: T7, P7A-bS; assay: two-hybrid library CCNG1
T7 chain: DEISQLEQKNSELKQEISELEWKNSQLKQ

[8] = molecular target: T8, P8A-bS; assay: two-hybrid library CCNG1
T8 chain: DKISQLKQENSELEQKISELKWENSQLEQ

[9] = molecular target: T9, P9A-bS; assay: two-hybrid library CCNG1
T9 chain: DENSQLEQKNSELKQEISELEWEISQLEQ

[10] = molecular target: T10, 4H2447-AA; assay: two-hybrid library CCmax
T10 chain: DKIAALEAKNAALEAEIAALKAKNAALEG

[11] = molecular target: T11, 4H2458-AA; assay: two-hybrid library CCmax; conditions: mean of both orientations
T11 chain: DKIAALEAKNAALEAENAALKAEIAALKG

[12] = molecular target: T12, 4H3330-AA; assay: two-hybrid library CCmax; conditions: mean of both orientations
T12 chain: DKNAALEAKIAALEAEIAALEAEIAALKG

[13] = molecular target: T13, 4H716-AA; assay: two-hybrid library CCmax; conditions: mean of both orientations
T13 chain: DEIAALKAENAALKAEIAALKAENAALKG

[14] = molecular target: T14, 4H733-AA; assay: two-hybrid library CCmax; conditions: mean of both orientations
T14 chain: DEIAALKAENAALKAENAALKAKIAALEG

[15] = molecular target: T15, 4H807-AA; assay: two-hybrid library CCmax; conditions: mean of both orientations
T15 chain: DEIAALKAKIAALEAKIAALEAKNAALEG

[16] = molecular target: T16, APC1015-AA; assay: two-hybrid library CCmax; conditions: mean of both orientations
T16 chain: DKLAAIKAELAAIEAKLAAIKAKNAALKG

[17] = molecular target: T17, APC1434-AA; assay: two-hybrid library CCmax; conditions: mean of both orientations
T17 chain: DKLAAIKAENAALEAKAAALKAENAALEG

[18] = molecular target: T18, APC2237-AA; assay: two-hybrid library CCmax; conditions: mean of both orientations
T18 chain: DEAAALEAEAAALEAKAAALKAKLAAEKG

[19] = molecular target: T19, APC232-AA; assay: two-hybrid library CCmax; conditions: mean of both orientations
T19 chain: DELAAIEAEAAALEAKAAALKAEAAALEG

[20] = molecular target: T20, APC2405-AA; assay: two-hybrid library CCmax; conditions: mean of both orientations
T20 chain: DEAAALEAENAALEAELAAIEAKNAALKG

[21] = molecular target: T21, APC3645-AA; assay: two-hybrid library CCmax; conditions: mean of both orientations
T21 chain: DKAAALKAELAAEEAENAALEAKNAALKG

[22] = molecular target: T22, APC4011-AA; assay: two-hybrid library CCmax; conditions: mean of both orientations
T22 chain: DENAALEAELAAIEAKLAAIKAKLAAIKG

[23] = molecular target: T23, APC4264-AA; assay: two-hybrid library CCmax; conditions: mean of both orientations
T23 chain: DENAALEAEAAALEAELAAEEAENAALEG

[24] = molecular target: T24, APC4436-AA; assay: two-hybrid library CCmax; conditions: mean of both orientations
T24 chain: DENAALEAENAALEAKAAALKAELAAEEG

[25] = molecular target: T25, APC5383-AA; assay: two-hybrid library CCmax; conditions: mean of both orientations
T25 chain: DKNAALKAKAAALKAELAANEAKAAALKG

[26] = molecular target: T26, APC6108-AA; assay: two-hybrid library CCmax; conditions: mean of both orientations
T26 chain: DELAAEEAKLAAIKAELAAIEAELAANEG

[27] = molecular target: T27, APC7099-AA; assay: two-hybrid library CCmax; conditions: mean of both orientations
T27 chain: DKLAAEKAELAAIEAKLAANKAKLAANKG

[28] = molecular target: T28, APC8191-AA; assay: two-hybrid library CCmax; conditions: mean of both orientations
T28 chain: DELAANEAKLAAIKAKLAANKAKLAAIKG

[29] = molecular target: T29, APC8910-AA; assay: two-hybrid library CCmax; conditions: mean of both orientations
T29 chain: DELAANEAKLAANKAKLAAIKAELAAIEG

[30] = molecular target: T30, APC9096-AA; assay: two-hybrid library CCmax; conditions: mean of both orientations
T30 chain: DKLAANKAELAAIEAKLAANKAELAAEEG

[31] = molecular target: T31, APC9319-AA; assay: two-hybrid library CCmax; conditions: mean of both orientations
T31 chain: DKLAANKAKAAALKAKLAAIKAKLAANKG

[32] = molecular target: T32, 4H1373-bA; assay: two-hybrid library CCNG1
T32 chain: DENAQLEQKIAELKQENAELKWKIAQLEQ

[33] = molecular target: T33, 4H1449-bA; assay: two-hybrid library CCNG1
T33 chain: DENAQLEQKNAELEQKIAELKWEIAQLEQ

[34] = molecular target: T34, 4H1544-bA; assay: two-hybrid library CCNG1
T34 chain: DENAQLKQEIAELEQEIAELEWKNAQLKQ

[35] = molecular target: T35, 4H1710-bA; assay: two-hybrid library CCNG1
T35 chain: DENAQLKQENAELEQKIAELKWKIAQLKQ

[36] = molecular target: T36, 4H1899-bA; assay: two-hybrid library CCNG1
T36 chain: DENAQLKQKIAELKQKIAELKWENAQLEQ

[37] = molecular target: T37, 4H1985-bA; assay: two-hybrid library CCNG1
T37 chain: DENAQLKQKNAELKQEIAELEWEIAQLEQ

[38] = molecular target: T38, 4H2691-bA; assay: two-hybrid library CCNG1
T38 chain: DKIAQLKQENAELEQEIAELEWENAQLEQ

[39] = molecular target: T39, 4H3162-bA; assay: two-hybrid library CCNG1
T39 chain: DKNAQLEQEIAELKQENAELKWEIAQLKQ

[40] = molecular target: T40, 4H3175-bA; assay: two-hybrid library CCNG1
T40 chain: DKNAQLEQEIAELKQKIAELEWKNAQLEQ

[41] = molecular target: T41, 4H3277-bA; assay: two-hybrid library CCNG1
T41 chain: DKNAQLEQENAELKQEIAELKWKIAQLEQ

[42] = molecular target: T42, 4H3298-bA; assay: two-hybrid library CCNG1
T42 chain: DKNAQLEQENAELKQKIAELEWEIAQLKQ

[43] = molecular target: T43, 4H3462-bA; assay: two-hybrid library CCNG1
T43 chain: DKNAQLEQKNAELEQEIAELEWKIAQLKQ

[44] = molecular target: T44, 4H3497-bA; assay: two-hybrid library CCNG1
T44 chain: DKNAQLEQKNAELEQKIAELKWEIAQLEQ

[45] = molecular target: T45, 4H3613-bA; assay: two-hybrid library CCNG1
T45 chain: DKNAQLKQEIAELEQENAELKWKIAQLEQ

[46] = molecular target: T46, 4H3628-bA; assay: two-hybrid library CCNG1
T46 chain: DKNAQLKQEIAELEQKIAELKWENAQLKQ

[47] = molecular target: T47, 4H3817-bA; assay: two-hybrid library CCNG1
T47 chain: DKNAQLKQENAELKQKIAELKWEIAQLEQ

[48] = molecular target: T48, 4H3858-bA; assay: two-hybrid library CCNG1
T48 chain: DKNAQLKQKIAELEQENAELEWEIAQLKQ

[49] = molecular target: T49, 4H3926-bA; assay: two-hybrid library CCNG1
T49 chain: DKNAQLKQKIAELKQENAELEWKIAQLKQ

[50] = molecular target: T50, 4H3974-bA; assay: two-hybrid library CCNG1
T50 chain: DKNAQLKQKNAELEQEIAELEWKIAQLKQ

[51] = molecular target: T51, 4H570-bA; assay: two-hybrid library CCNG1
T51 chain: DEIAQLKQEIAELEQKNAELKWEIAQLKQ

[52] = molecular target: T52, 4H591-bA; assay: two-hybrid library CCNG1
T52 chain: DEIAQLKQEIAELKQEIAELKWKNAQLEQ

[53] = molecular target: T53, 4H619-bN; assay: two-hybrid library CCNG1
T53 chain: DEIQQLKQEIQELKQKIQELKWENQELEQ

[54] = molecular target: T54, 4H626-bA; assay: two-hybrid library CCNG1
T54 chain: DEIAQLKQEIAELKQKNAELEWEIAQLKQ

[55] = molecular target: T55, 4H850-bA; assay: two-hybrid library CCNG1
T55 chain: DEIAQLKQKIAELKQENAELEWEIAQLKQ

[56] = molecular target: T56, 4H906-bA; assay: two-hybrid library CCNG1
T56 chain: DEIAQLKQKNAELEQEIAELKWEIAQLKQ

[57] = molecular target: T57, P1A-bP; assay: two-hybrid library CCNG1
T57 chain: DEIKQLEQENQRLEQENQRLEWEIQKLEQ

[58] = molecular target: T58, P2A-bP; assay: two-hybrid library CCNG1
T58 chain: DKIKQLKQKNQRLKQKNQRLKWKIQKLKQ

[59] = molecular target: T59, P3A-bP; assay: two-hybrid library CCNG1
T59 chain: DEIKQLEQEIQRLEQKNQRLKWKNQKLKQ

[60] = molecular target: T60, P4A-bP; assay: two-hybrid library CCNG1
T60 chain: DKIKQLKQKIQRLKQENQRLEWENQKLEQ

[61] = molecular target: T61, P5A-bP; assay: two-hybrid library CCNG1
T61 chain: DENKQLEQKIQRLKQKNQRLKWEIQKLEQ

[62] = molecular target: T62, P6A-bP; assay: two-hybrid library CCNG1
T62 chain: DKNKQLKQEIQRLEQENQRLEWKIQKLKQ

[63] = molecular target: T63, P7A-bP; assay: two-hybrid library CCNG1
T63 chain: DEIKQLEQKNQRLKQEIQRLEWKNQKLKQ

[64] = molecular target: T64, P8A-bP; assay: two-hybrid library CCNG1
T64 chain: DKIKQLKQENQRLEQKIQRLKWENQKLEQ

[65] = molecular target: T65, P9A-bP; assay: two-hybrid library CCNG1
T65 chain: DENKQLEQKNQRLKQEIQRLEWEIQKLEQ

DEISQLEQENSELEQENSELEWEISQLEQ [P1A-bS]
interaction score [1]: -0.982
interaction score [2]: 1.9
interaction score [3]: -0.598
interaction score [4]: -0.182
interaction score [5]: -0.939
interaction score [6]: 0.0466
interaction score [7]: -1.96
interaction score [8]: -0.899
interaction score [9]: -1.08

DKIAALEAKNAALEAEIAALKAKNAALEG [4H2447-AA]
interaction score [10]: 1.72
interaction score [11]: -1.42
interaction score [12]: -0.798
interaction score [13]: -1.36
interaction score [14]: -1.83
interaction score [15]: -1.69
interaction score [16]: -2.05
interaction score [17]: -1.56
interaction score [18]: -1.38
interaction score [19]: -1.82
interaction score [20]: -1.12
interaction score [21]: -1.7
interaction score [22]: -0.716
interaction score [23]: -1.6
interaction score [24]: -1.79
interaction score [25]: -1.8
interaction score [26]: -1.28
interaction score [27]: -1.5
interaction score [28]: -1.38
interaction score [29]: -1.68
interaction score [30]: -1.78
interaction score [31]: -1.75

DENAQLEQKIAELKQENAELKWKIAQLEQ [4H1373-bA]
interaction score [32]: 0.464
interaction score [33]: -1.22
interaction score [34]: -0.914
interaction score [35]: -0.946
interaction score [36]: -1.03
interaction score [37]: -0.533
interaction score [38]: 0.119
interaction score [39]: -0.314
interaction score [40]: -0.89
interaction score [41]: -0.594
interaction score [42]: -0.776
interaction score [43]: -0.757
interaction score [44]: -1.17
interaction score [45]: 1.71
interaction score [46]: -0.805
interaction score [47]: -0.693
interaction score [48]: 1.36
interaction score [49]: 2.27
interaction score [50]: -0.681
interaction score [51]: -0.799
interaction score [52]: -0.592
interaction score [53]: -0.473
interaction score [54]: -1.61
interaction score [55]: -0.104
interaction score [56]: -1.26

DEIKQLEQENQRLEQENQRLEWEIQKLEQ [P1A-bP]
interaction score [57]: -1.8
interaction score [58]: 1.97
interaction score [59]: -0.629
interaction score [60]: -1.23
interaction score [61]: -0.589
interaction score [62]: -0.151
interaction score [63]: -0.745
interaction score [64]: -0.0351
interaction score [65]: -2.64
